Data on 91 substances can be found in the Human Domainome abundance scans (Beltran et al. 2025).

± gives the uncertainty stated by the source.

The nature of the data set: abundance fitness (aPCA) (normalised: wild type 0, dead -1); higher = more abundant; growth selection in yeast, the domain comes from the species named. The settings on record: Saccharomyces cerevisiae (strain ATCC 204508 / S288c).
“E3 ubiquitin-protein ligase RSP5 N353F, P39940”: the abundance fitness is -0.323 ± 0.11.

“E3 ubiquitin-protein ligase RSP5 N353G, P39940”: the abundance fitness was -0.132 ± 0.043.

In the case of “E3 ubiquitin-protein ligase RSP5 N353H, P39940”, the abundance fitness is -0.563 ± 0.14.

Take “E3 ubiquitin-protein ligase RSP5 N353I, P39940”: the abundance fitness is -0.083 ± 0.078.

Consider “E3 ubiquitin-protein ligase RSP5 N353K, P39940”, for which the abundance fitness was -0.141 ± 0.08.

Substance “E3 ubiquitin-protein ligase RSP5 N353L, P39940” displayed an abundance fitness of -0.278 ± 0.044.

Substance “E3 ubiquitin-protein ligase RSP5 N353M, P39940” showed an abundance fitness of -0.132 ± 0.062.

“E3 ubiquitin-protein ligase RSP5 N353P, P39940” came in with an abundance fitness of -0.673 ± 0.065.

In turn, “E3 ubiquitin-protein ligase RSP5 N353Q, P39940” yielded an abundance fitness of -0.212 ± 0.052.

Substance “E3 ubiquitin-protein ligase RSP5 N353R, P39940” had an abundance fitness of -0.177 ± 0.04.

“E3 ubiquitin-protein ligase RSP5 N353S, P39940” gave an abundance fitness of -0.109 ± 0.061.

“E3 ubiquitin-protein ligase RSP5 N353T, P39940” registered an abundance fitness of -0.113 ± 0.059.

“E3 ubiquitin-protein ligase RSP5 N353V, P39940”: the abundance fitness was -0.217 ± 0.044.

“E3 ubiquitin-protein ligase RSP5 N353W, P39940”: the abundance fitness is -0.44 ± 0.061.

“E3 ubiquitin-protein ligase RSP5 P334A, P39940” yielded an abundance fitness of -0.61 ± 0.07.

In turn, “E3 ubiquitin-protein ligase RSP5 P334C, P39940” had an abundance fitness of -0.746 ± 0.072.

On to “E3 ubiquitin-protein ligase RSP5 P334D, P39940”, for which the abundance fitness was -0.592 ± 0.091.

On to “E3 ubiquitin-protein ligase RSP5 P334E, P39940”, for which the abundance fitness is -0.689 ± 0.056.

In turn, “E3 ubiquitin-protein ligase RSP5 P334F, P39940” gave an abundance fitness of -0.889 ± 0.083.

“E3 ubiquitin-protein ligase RSP5 P334G, P39940” gave an abundance fitness of -0.629 ± 0.044.

Regarding “E3 ubiquitin-protein ligase RSP5 P334H, P39940”, the abundance fitness is -0.658 ± 0.078.

Substance “E3 ubiquitin-protein ligase RSP5 P334K, P39940” registered an abundance fitness of -0.86 ± 0.071.

“E3 ubiquitin-protein ligase RSP5 P334L, P39940” showed an abundance fitness of -0.837 ± 0.072.

On to “E3 ubiquitin-protein ligase RSP5 P334M, P39940”, for which the abundance fitness was -0.702 ± 0.059.

Substance “E3 ubiquitin-protein ligase RSP5 P334Q, P39940” came in with an abundance fitness of -0.68 ± 0.056.

In turn, “E3 ubiquitin-protein ligase RSP5 P334R, P39940” showed an abundance fitness of -1.03 ± 0.05.

As for “E3 ubiquitin-protein ligase RSP5 P334S, P39940”, the abundance fitness is -0.582 ± 0.053.

For the substance “E3 ubiquitin-protein ligase RSP5 P334T, P39940”, the abundance fitness is -0.857 ± 0.069.

Turning to “E3 ubiquitin-protein ligase RSP5 P334V, P39940”, the abundance fitness is -0.966 ± 0.05.

In turn, “E3 ubiquitin-protein ligase RSP5 P334W, P39940” yielded an abundance fitness of -1.01 ± 0.071.

Consider “E3 ubiquitin-protein ligase RSP5 P334Y, P39940”, for which the abundance fitness was -0.627 ± 0.14.

Take “E3 ubiquitin-protein ligase RSP5 P343A, P39940”: the abundance fitness was 0.013 ± 0.044.

In turn, “E3 ubiquitin-protein ligase RSP5 P343C, P39940” came in with an abundance fitness of -0.147 ± 0.16.

With “E3 ubiquitin-protein ligase RSP5 P343D, P39940”, the abundance fitness amounted to 0.099 ± 0.064.

With “E3 ubiquitin-protein ligase RSP5 P343E, P39940”, the abundance fitness is -0.019 ± 0.043.

“E3 ubiquitin-protein ligase RSP5 P343F, P39940” had an abundance fitness of -0.417 ± 0.49.

“E3 ubiquitin-protein ligase RSP5 P343G, P39940” displayed an abundance fitness of -0.018 ± 0.05.

For the substance “E3 ubiquitin-protein ligase RSP5 P343H, P39940”, the abundance fitness was 0.09 ± 0.082.

As to “E3 ubiquitin-protein ligase RSP5 P343I, P39940”, the abundance fitness came out at 0.017 ± 0.099.

“E3 ubiquitin-protein ligase RSP5 P343K, P39940” yielded an abundance fitness of 0.102 ± 0.07.

In turn, “E3 ubiquitin-protein ligase RSP5 P343L, P39940” yielded an abundance fitness of -0.021 ± 0.048.

Take “E3 ubiquitin-protein ligase RSP5 P343N, P39940”: the abundance fitness amounted to 0.116 ± 0.098.

“E3 ubiquitin-protein ligase RSP5 P343Q, P39940” showed an abundance fitness of -0.041 ± 0.059.

The substance “E3 ubiquitin-protein ligase RSP5 P343S, P39940” returned an abundance fitness of 0.07 ± 0.056.

For “E3 ubiquitin-protein ligase RSP5 P343T, P39940”, the abundance fitness turned out to be 0.014 ± 0.057.

Consider “E3 ubiquitin-protein ligase RSP5 P343W, P39940”, for which the abundance fitness was -0.313 ± 0.054.

For “E3 ubiquitin-protein ligase RSP5 P343Y, P39940”, the abundance fitness was -0.402 ± 0.35.

Turning to “E3 ubiquitin-protein ligase RSP5 P362A, P39940”, the abundance fitness is -0.747 ± 0.046.

Take “E3 ubiquitin-protein ligase RSP5 P362D, P39940”: the abundance fitness is -0.813 ± 0.097.

Substance “E3 ubiquitin-protein ligase RSP5 P362E, P39940” returned an abundance fitness of -0.723 ± 0.076.

“E3 ubiquitin-protein ligase RSP5 P362F, P39940” gave an abundance fitness of -1.41 ± 0.47.

The substance “E3 ubiquitin-protein ligase RSP5 P362G, P39940” registered an abundance fitness of -0.852 ± 0.044.

With “E3 ubiquitin-protein ligase RSP5 P362H, P39940”, the abundance fitness was -0.905 ± 0.28.

Consider “E3 ubiquitin-protein ligase RSP5 P362I, P39940”, for which the abundance fitness was -0.791 ± 0.12.

“E3 ubiquitin-protein ligase RSP5 P362K, P39940” showed an abundance fitness of -1.01 ± 0.1.

Regarding “E3 ubiquitin-protein ligase RSP5 P362L, P39940”, the abundance fitness is -0.993 ± 0.051.

With “E3 ubiquitin-protein ligase RSP5 P362M, P39940”, the abundance fitness is -1.2 ± 0.35.

For “E3 ubiquitin-protein ligase RSP5 P362Q, P39940”, the abundance fitness is -0.709 ± 0.093.

Consider “E3 ubiquitin-protein ligase RSP5 P362S, P39940”, for which the abundance fitness was -1.09 ± 0.065.

Take “E3 ubiquitin-protein ligase RSP5 P362T, P39940”: the abundance fitness was -0.708 ± 0.067.

Regarding “E3 ubiquitin-protein ligase RSP5 P362V, P39940”, the abundance fitness is -0.705 ± 0.048.

Consider “E3 ubiquitin-protein ligase RSP5 P362W, P39940”, for which the abundance fitness was -1.21 ± 0.062.

“E3 ubiquitin-protein ligase RSP5 P362Y, P39940” registered an abundance fitness of -1.01 ± 0.18.

For “E3 ubiquitin-protein ligase RSP5 Q339A, P39940”, the abundance fitness was -0.143 ± 0.047.

Take “E3 ubiquitin-protein ligase RSP5 Q339C, P39940”: the abundance fitness was -0.092 ± 0.07.

Turning to “E3 ubiquitin-protein ligase RSP5 Q339D, P39940”, the abundance fitness was -0.602 ± 0.09.

The substance “E3 ubiquitin-protein ligase RSP5 Q339E, P39940” came in with an abundance fitness of 0.006 ± 0.054.

In turn, “E3 ubiquitin-protein ligase RSP5 Q339F, P39940” came in with an abundance fitness of -0.26 ± 0.074.

Substance “E3 ubiquitin-protein ligase RSP5 Q339G, P39940” registered an abundance fitness of -0.256 ± 0.044.

For the substance “E3 ubiquitin-protein ligase RSP5 Q339H, P39940”, the abundance fitness is -0.134 ± 0.058.

Substance “E3 ubiquitin-protein ligase RSP5 Q339I, P39940” had an abundance fitness of -0.073 ± 0.069.

In turn, “E3 ubiquitin-protein ligase RSP5 Q339K, P39940” gave an abundance fitness of 0.026 ± 0.077.

For “E3 ubiquitin-protein ligase RSP5 Q339L, P39940”, the abundance fitness was -0.109 ± 0.051.

For “E3 ubiquitin-protein ligase RSP5 Q339M, P39940”, the abundance fitness was -0.008 ± 0.069.

Regarding “E3 ubiquitin-protein ligase RSP5 Q339P, P39940”, the abundance fitness was -0.297 ± 0.062.

“E3 ubiquitin-protein ligase RSP5 Q339R, P39940”: the abundance fitness is -0.051 ± 0.043.

The substance “E3 ubiquitin-protein ligase RSP5 Q339S, P39940” registered an abundance fitness of -0.138 ± 0.047.

Substance “E3 ubiquitin-protein ligase RSP5 Q339T, P39940” yielded an abundance fitness of -0.11 ± 0.065.

In turn, “E3 ubiquitin-protein ligase RSP5 Q339V, P39940” gave an abundance fitness of -0.076 ± 0.045.

“E3 ubiquitin-protein ligase RSP5 Q339W, P39940” had an abundance fitness of -0.406 ± 0.046.

The substance “E3 ubiquitin-protein ligase RSP5 Q339Y, P39940” displayed an abundance fitness of -0.181 ± 0.1.

In turn, “E3 ubiquitin-protein ligase RSP5 Q365A, P39940” registered an abundance fitness of 0.097 ± 0.044.

Take “E3 ubiquitin-protein ligase RSP5 Q365C, P39940”: the abundance fitness amounted to 0.077 ± 0.089.

The substance “E3 ubiquitin-protein ligase RSP5 Q365E, P39940” returned an abundance fitness of 0.057 ± 0.059.

In the case of “E3 ubiquitin-protein ligase RSP5 Q365F, P39940”, the abundance fitness is -0.034 ± 0.15.

“E3 ubiquitin-protein ligase RSP5 Q365G, P39940”: the abundance fitness was found to be 0.052 ± 0.046.

Turning to “E3 ubiquitin-protein ligase RSP5 Q365H, P39940”, the abundance fitness amounted to 0.167 ± 0.11.

On to “E3 ubiquitin-protein ligase RSP5 Q365K, P39940”, for which the abundance fitness amounted to 0.022 ± 0.064.

Take “E3 ubiquitin-protein ligase RSP5 Q365L, P39940”: the abundance fitness is 0.033 ± 0.058.

With “E3 ubiquitin-protein ligase RSP5 Q365M, P39940”, the abundance fitness was -0.022 ± 0.17.

For the substance “E3 ubiquitin-protein ligase RSP5 Q365R, P39940”, the abundance fitness turned out to be 0.014 ± 0.043.
